The text below walks through data of publication PMC11672753 (Plant Biotechnology Journal, 2024).

The target in this assay is T1, SARS-CoV-2 RBD (Wuhan), hexahistidine-tagged (SARS-CoV-2, UniProt P0DTC2).
T1 construct: also called recombinant RBD protein
Kind of assay: BLI. The note with it: both partners purified.

B1: M15 (plant-produced COVA2-15, conventional IgG1) (antibody, V domains shown)
VH: QVQLLESGGGLVQPGGSLRLSCAASGFTFSSYAMSWVRQAPGKGLEWASAISGSGGSTYYADSVEGRFTISRDNSKNTLYLQMNSLRAEDTAVYYCAKDTGYCGDDCYIKLIRGGPDYWGQGTLVTVSS
VL: DIVMTQSPLSLPVTLGQPASISCRSSQSLVYSDGNTFLNWFQQRPGQSPRRLIYQVSNRDSGVPDRFSGSGSGTDFTLKISRVEAEDVGVYYCMQGTHWPRTFGQGTKLEIK
As for B1, the binding result was “binds”.

B2: S15 (plant-produced COVA2-15, single-chain (sc)Fv-Fc format) (Fc fusion, human)
VH: QVQLLESGGGLVQPGGSLRLSCAASGFTFSSYAMSWVRQAPGKGLEWASAISGSGGSTYYADSVEGRFTISRDNSKNTLYLQMNSLRAEDTAVYYCAKDTGYCGDDCYIKLIRGGPDYWGQGTLVTVSS
VL: DIVMTQSPLSLPVTLGQPASISCRSSQSLVYSDGNTFLNWFQQRPGQSPRRLIYQVSNRDSGVPDRFSGSGSGTDFTLKISRVEAEDVGVYYCMQGTHWPRTFGQGTKLEIK
As to B2, the binding result was “binds”.
